The values that follow come from patent US20240101710A1 (ALLOGENE THERAPEUTICS, published 2024).

For the test, the target named is T1, anti-BCMA antibody clone C29 Fab.
T1 construct: also called anti-BCMA clone C29 Fab
In words: Biacore (SPR), 25 C, HEPES buffer pH 7.4. On the procedure:
E10 purified from the hybridoma cell line supernatant was analyzed by Biacore assay against the antigen anti-BCMA clone C29 Fab. The Biacore assay was run, for example, in 10 mM HEPES buffer, with 150 mM NaCl and 0.05% Tween20 at pH 7.4 and 1 mg/mL BSA at 25° C.

T1 sequence (VH, as listed by the source, chain 1 of 2): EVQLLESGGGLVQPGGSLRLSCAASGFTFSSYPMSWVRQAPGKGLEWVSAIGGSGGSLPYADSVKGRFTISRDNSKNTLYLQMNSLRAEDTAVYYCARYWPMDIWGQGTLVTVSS
T1 sequence (VL, as listed by the source, chain 2 of 2): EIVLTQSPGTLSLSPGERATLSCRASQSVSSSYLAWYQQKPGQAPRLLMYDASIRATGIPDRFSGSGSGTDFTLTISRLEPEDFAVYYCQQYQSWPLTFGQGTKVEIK

B1: anti-idiotypic antibody clone 87B12.E10 (E10), purified from hybridoma cell line (antibody, V domains shown)
VH: QVQLQQSGPGLVQPSQSLSIPCTVSGFSLTSYDVHWVRQSPGKGLEWLGVIWSGGSTGYNAIFRSRLSINKDNSKSQVFFKMTSLQPDDTAIYYCANFSPWYLPSYWDQGTLVTVSA
VL: QIVLTQSPAIMSASPGEKVTITCSASSNVSYMHWFQQKPGTSPKLWIYSTSNLASGVPARFSGSGSGTSYSLTISRMEAEDAATYYCQQRSSYPLTFGAGTKLELK
notes: Mouse (Balb/c) hybridoma antibody; also called E10 purified Ab from hybridoma cell line
With B1, binding was put at a Kd of 0.11 nM; the koff (in general, the first-order rate constant of dissociation) turned out to be 0.000157 s⁻¹; the kon (as a rule, the second-order rate constant of association) is 1.48e+06 M⁻¹ s⁻¹; the t1/2 worked out at 1.23 h.
